Reference: the supplement of paper PMC9170038

Tested on: MS2 coat protein
Assay: apparent KD of MS2 coat protein; designed switch direction (-1 OFF switch, 1 ON switch): -1; higher = weaker reporter binding
In short: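 For each design, the apparent KD is the median over clusters of curves fitted to normalised cluster fluorescence. Clusters held RNA switches with common flanks, transcribed on Illumina chips by stalled E. coli RNA polymerase. These were titrated with SNAP-549-labelled MS2 coat protein, doubling from 0.7 or 1.5 nM to 3 µM, without input, with 200 uM small-molecule ligand, or with an oligonucleotide input.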

[1] = Eterna round: R95, input ligand: microRNA oligo, concentration not stated
[2] = Eterna round: R95, input ligand: FMN 200 uM
[3] = Eterna round: R95, input ligand: none
[4] = input ligand: microRNA oligo, concentration not stated

Sequence | apparent KD of MS2 coat protein (input ligand: FMN 200 uM) [µM] | apparent KD of MS2 coat protein (input ligand: none) [µM] | apparent KD of MS2 coat protein [1] [µM] | apparent KD of MS2 coat protein [2] [µM] | apparent KD of MS2 coat protein [3] [µM] | apparent KD of MS2 coat protein [4] [µM]
UUGCUCGUCUUGCUUCCUAACAUGAGGAUCACCCAUGUCGACGGUGAGACGCAAGAGCCAUCUCGCCGUUGAUCGUC [Eternabot (Original) Solution 4] (Eterna round: R97, puzzle: Sensor, turn-off variant 1) | 0.134 | 0.159 | – | – | – | –
GUGUACAGAGGAUAUACUUAUGGAGUUACGAAAGUAACUUCACAUGAGGAUCACCCAUGUAGAAGGCUGUACAC [Dot plot directed v10] (puzzle: Exclusion 2) | – | – | 0.0259 | – | – | –
AUAAUGUCAGGAUAUCAGAAGUUUAACUUCGGUUAAACUUCUGAGAAGGGACAUGAGGAUCACCCAUGUGAUUA [E4/3-B1] (Eterna round: R97, puzzle: Exclusion 4) | 0.109 | 1.33 | – | – | – | –
CUCUUGUCAGGAUAUCAACGCCAUCCACAUGGACGGCGAAAUGAGAAGGGACAUGAGGAUCACCCAUGUUAAAA [Xeveleqube] (puzzle: Exclusion 4) | – | – | 0.117 | 0.0273 | 0.139 | –
UGAUCAGACCGAGGAUAUAUAUGUAGGACCCACGUGAGUGGGUCCAGUACAUGAGGAUCACCCAUGUAGAAGGCGGUCUGAUCU [JL ENG2 1.87] (Eterna round: R96, puzzle: Exclusion NG 2) | 0.0192 | 0.015 | – | – | – | 0.0107
CUUUUGUGAGGAUAUCAGUAGUAAUAAAAUAAAAUUACUACUGAGAAGGCACAUGAGGAUCACCCAUGUUCCUC [salish99_ex4_r3_018] (puzzle: Exclusion 4) | – | – | 0.0376 | – | – | –
GUUAGUUAAGGAUAUACAGGGAGCUGCGGCGUCUCGCCGCAACAUGAGGAUCACCCAUGUAGAAGGUGACCUUU [JL ViennaUCT Enbibi mod 7] (puzzle: Exclusion 2) | – | – | 0.435 | – | – | –
GCAUUGAGUGUGAGGAUAUGCUGGUCAUAAGAUCAGCAGAAGGCACAUGAGGAUCACCCAUGUGAAAACAAUGC [Mat - Exclusion 4 - JL Mod - D66] (puzzle: Brourd's mod of Exclusion 4) | – | – | 0.0147 | 0.0931 | 0.0192 | –
GAAAAGGUAGGAUAUACGAAAAGAAAGGGUAGAAAGAAAACACAUGAGGAUCACCCAUGUAGAAGGACCAAAAG [salish99_ex2_r3_095] (puzzle: Exclusion 2) | – | – | 0.0146 | 0.0373 | 0.0268 | –
ACGGUGGUCCGAGAACAUGAGGAUCACCCAUGUGACAAAACCAAGGAUAUAGACGGACCGCCCGACUAGAAGGUGGAAAGAAAA [Aronlema] (Eterna round: R96, puzzle: Exclusion NG 3) | 0.0902 | 0.0779 | – | – | – | 0.0411
UUAAAUCAUGUAGGAUAUGCGUGGCGAAGCUAUGCAGAAGGACAUGAGGAUCACCCAUGUCUUUCCGUCUGCGUACAGAUGGAG [JL Eng1 1.08 mod 4] (Eterna round: R96, puzzle: Exclusion NG 1) | 0.191 | 0.0247 | – | – | – | 0.0174
AAUUAGCAAGCGAGAUCCCACAUGAGGAUCACCCAUGUGCUCGUCUUAUAUAAGGUACUGUACAAAAGUACGGUACC [Mat - Sensor, turn-off var - Eli Mod - D32] (Eterna round: R97, puzzle: Sensor, turn-off variant 1) | 0.0145 | 0.0141 | – | – | – | –
CCGGAAAGGAAGGAUAUGCUAGACGAAAGUCUAGCAGAAGGUCCUACAUGAGGAUCACCCAUGUGGCCUCCCGG [Eli x6 4.09] (Eterna round: R97, puzzle: Exclusion 6) | 0.267 | 0.137 | – | – | – | –
ACUGUUUGAUACCUCUAAUACAUGAGGAUCACCCAUGUUAUCGAGGAUAUGCAUUAGAGUGGUUAGCAGAAGGCGAAGUAAUUG [JR_ExcNG3_Sub031] (Eterna round: R96, puzzle: Exclusion NG 3) | 0.017 | 0.0216 | – | – | – | 0.0142
AAGAAGACAGGAUAUACAUGAAAGAAAGAAAAGAAAAGAAAACAUGAGGAUCACCCAUGUAGAAGGGUCAAGAA [EteRNA is fun!] (Eterna round: R96, puzzle: Exclusion 2) | – | – | – | – | – | 0.0358
GCGGAAAACUUAGGAUAUCAGGGCUGCACAUGAGGAUCACCCAUGUGAUAGCUCUAACGCGGUCCUGAGAAGGGAGAGCCCGGA [Rarasoa] (Eterna round: R96, puzzle: Exclusion NG 2) | 0.0942 | 0.0447 | – | – | – | 0.0438
AUAAGUAUGAAGGAUAUGCGCGAGCCAGCUUGGGCAGAAGGUUAAACAUGAGGAUCACCCAUGUGGAAAUCCGA [Eternabot (Original) Solution 34] (Eterna round: R97, puzzle: Exclusion 6) | 0.0329 | 0.0217 | – | – | – | –
CCGCAAAUGCAGGAUAUCGUAUCGGAUACGAUACGAGAAGGGCGUACAUGAGGAUCACCCAUGUGUCCUAGCGG [Fiskers Ex 6 - 42] (puzzle: Exclusion 6) | – | – | 0.0166 | – | – | –
GUAGAGUAAGGAUAUGUUGAAUAGGAUAGAAUGGUUAGAAAGCAGAAGGUACAUGAGGAUCACCCAUGUAAUGU [Excluse me!!!! 14 - Jieux - Exclusion 4] (puzzle: Exclusion 4) | – | – | 0.0214 | – | – | –
UGCAGACGAGGAUAUAAAUUUAAAUACAUGAGGAUCACCCAUGUAUAAAUGUAUUUAAAUUUAGAAGGCGUCUGCU [E5/12-A4] (Eterna round: R97, puzzle: Exclusion 5) | 0.5 | 0.606 | – | – | – | –
CUAGUCCGAGGAUAUAUUAAGUGAUACAUGAGGAUCACCCAUGUUAUUUAAUGGAUAUUAAUAGAAGGCGGACUAG [Mat - Exclusion 5 - JL mod - D78] (puzzle: Exclusion 5) | – | – | 0.0321 | 0.0426 | 0.0313 | –
AAACCCUGAGGAUAUACAUAACAACAAAGCCUCACGUGCCAACAUGAGGAUCACCCAUGUAGAAGGCGGGCCAA [Mod R3 Insanara 14 - Jieux - Exclusion 2] (Eterna round: R97, puzzle: Exclusion 2) | 0.0373 | 0.0151 | – | – | – | –
UGCAUGUCAGGAUAUAUUAGUACACUAGUCAGUCUAGGUGCGUAGAAGGGACAUGAGGAUCACCCAUGUGACAU [Eternabot (L2) Solution 1] (Eterna round: R97, puzzle: Exclusion 4) | 0.143 | 0.0649 | – | – | – | –
AAUAGUAAUAAGGAUAUCACUAGCCUCGGCUAGUGAGAAGGUAUUACAUGAGGAUCACCCAUGUGGUCAAUUAA [E6/4-A2] (Eterna round: R97, puzzle: Exclusion 6) | 1.11 | 1.13 | – | – | – | –
AGGUCUCGUGUCAGGAUAUAUUUUCUCUGAGCAAGGUAGAAGGGACAUGAGGAUCACCCAUGUCUGAGGAAAAU [Eternabot (L1) Solution 34] (Eterna round: R97, puzzle: Brourd's mod of Exclusion 4) | 0.024 | 0.0191 | – | – | – | –
UACCUGAGGCUUUGCUUUAGGCUUACAUGAGGAUCACCCAUGUAGGAUAUGGUAGGCUUUGCUUACCAGAAGGACAUGGUAAUU [JL ENG3 1.07] (Eterna round: R96, puzzle: Exclusion NG 3) | 0.0909 | 0.0646 | – | – | – | 0.0599
